Reference: publication PMC11850899 (Communications Biology, 2025)
Substitutions are numbered along the chain they refer to. Names may count otherwise. Where two headings read alike, the source gives them in different places.

B1: Bacillus subtilis DSR2 (defense-associated sirtuin 2), wild type (enzyme)
chain: MVKVDLESKRYGEKLKEVFLMLDNNVVECIKEITESSRNGKLVFFVGAGVSTLSDYPQWWRLVDKYHEELYGSPKKGNYSSDEYLRIPQIFYNVKGEMAFDGILKDFFQVDKPTNPIHDKILAMNPAHVITTNYDNLIDTACWKRGKYFSVISAEEDVANATSSRYLLKVHGDFRKGFKGENVVLKEDDYLNYDQNYPLISNLMKTIIATHTIVFIGYGLGDYNINMLLNWVRKLQKDSFHKPFFIRTDPSPIENETLIYYENKGLRIIDAASLIDSNEYDYLERYSAVMDLLIESQENKFITKDDEVIDYIYGKISPLFALQYIRKIDLKHVFEYDYHFEVNGTVVRHKNKGFGYMERFFELKESCDERSKLSKKQYERFNALFNFFEKNGVICMAKDAGTLNTSIEINSLAYHGKYDVMKKFIEEQSVSIEDDYKKAFFLACLGRWEESYDLYSNIILNSIDESNGCVYYLSQINRYRIYQSITQAVTQFNGLGLLTFGRHYKPFTDEFLARIEREMTNFNIDDLFNGMPFEFQKKYKILEFLSDNQFLYDDTVKLFELTNKVRSEMSEGSYSFGMSSDIVVLLRLYDNLRFLYENCLWSVSFHEFHQYIRNSMSLLIEKAEYERTRDIDELGFSFFGKKSGFFMEYYDFVNISRHFKIDDIKNLERSCSIDKIRFGEQEKIEEYLVGIAEEITKQFSANGMNVVFYTQFISEAKAALYFAKYVKLSEEGLGKIVKALLFYFPERDLDIGKRYVWLERLTKCNELPKSIISIIDDFLVLQAEKHIDQNYSEVSSNGLYSRDYGALIKHFEKNFISKRLSEITLCLTQDKQKQIDFLFKLLPLLSTNAKSHLLSFKSVENINDLMNGIRIGLIDEFTPEHEELIIEYLETRKVNYIVEKEKGIQTFSSNDYMSTFGIWYFLEEINNSKMEEFIGMDDQYDFFVDPENFDYKKFIPSWLKNYNDKLLGKIAGNKHMKHHVIEVLKERVKNSNDKRYLEILMNYFI
B2: Bacillus subtilis DSR2 H171A (catalytic mutant) (enzyme, UniProt P0DXN8 1-1005, looked up)
chain: B1 chain with H171A

Tests used:
[1] = target: the molecule itself; assay: cryo-EM structure
[2] = target: the molecule itself; assay: cryo-EM structure; remark: listed apart in the source

Protein	stoichiometry N [1]	stoichiometry N [2]
B1	4	–
B2	–	4
